We go through one molecule from patent US9629910B2, “Use of Th9 cells and IL-9 for the treatment of melanoma” (THE BRIGHAM AND WOMEN'S HOSPITAL, INC., priority 2011, dated 2017).

Assay [1] has as its system B16F10 cells. Description: Growth curve assay of tumor cells with rIL-9 (crystal violet). The format is cell-based, mouse. To be noted: melanoma cells and lung carcinoma cells, rIL-9 at different concentrations (FIG. 10D). As to the method:
Effect of rIL-9 on growth of B16F10 cells were studied by growth curve assay. B16F10 cells were seeded with rIL-9. After each incubation period cells were fixed (10% acetic acid in 10% ethanol). Cells were subsequently stained with 0.4% crystal violet in 10% ethanol for 30 min. Subsequently, 200 μl 10% acetic acid was added. After 30 min, 100 μL solution was transferred into 96-well plate and OD was measured at 595-wavelength.

In assay [2] the test system is Lewis lung carcinoma (LLC-1) cells. Description: Lewis lung carcinoma (LLC-1) tumor growth in mice treated with rIL-9. It counts as in vivo. As to the method:
(§1) Melanoma cell lines (B16F10 cells or B16F10-ova cells), T cell lymphoma (EL-4 or ovalbumin expressing EL-4 (EG-7)) and Lewis lung carcinoma (LLC1) were grown in RPMI1640 supplemented with 10% FBS, and penicillin/streptomycin. B16F10 cells (2-4×10^5 cells/150 μl/mouse), EL-4 (2×10^5 cells/150 μA/mouse), or LLC1 (5×10^5 cells/150 μA/mouse) were injected subcutaneously into the right or left flank of the mice and tumor development was monitored over time. Tumor volume was calculated by following formula: (major circumference×minor circumference^2)/2. Mice were sacrificed when there was external necrosis or/and tumor volume reached no greater than 2 cm in any direction.
(§2) rIL-9 (5 μg/100 μA PBS/mouse from Cell Sciences, USA) was injected (ip) from day 0 and every third day till the termination of the experiment. In lewis lung carcinoma (LLC-1) model, rIL-9 (50 ng/100 μl PBS/mouse from RnD systems) was used on every alternate day till the termination of experiment. Unlike Cell Science rIL-9 (source: E. coli), rIL-9 from RnD systems is glycosylated and therefore has stronger biological activity compared to Cell Sciences. Thus, 100 times less rIL-9 was used in LLC-1 tumor model experiments compared to melanoma model experiments.

For assay [3], the system named is B16F10 melanoma cells. Description: B16F10 melanoma growth in mice treated with rIL-9 (i.p.). The format is in vivo. The protocol: as §1, §2
Assay [4] has as its system EL-4 T lymphoma cells. Description: EL-4 tumor growth in mice treated with IL-9. The format is in vivo. The settings on record: IL-9 treatment (data not included). As to the method:
as §1

B1: rIL-9: recombinant interleukin-9 cytokine from Cell Sciences, injected ip 5 μg/mouse in melanoma model (protein, UniProt P15247 19-144, looked up)
Interleukin-9: QRCSTTWGIRDTNYLIENLKDDPPSKCSCSGNVTSCLCLSVPTDDCTTPCYREGLLQLTNATQKSRLLPVFHRVKRIVEVLKNITCPSFSCEKPCNQTMAGNTLSFLKSLLGTFQKTEMQRQKSRP
Regarding B1, the “tumor cell growth in vitro” value in assay [1] is given as “does not affect the growth of these cells in vitro”. Further, the tumor development result in assay [2] (mast cell deficient mice (Kit W-sh), LLC-1, vs control (FIG. 5F)) is reported as “no significant difference in tumor development”; in assay [3] (mast cell deficient mice (Kit W-sh), B16 melanoma, vs control (FIG. 5E)), “no significant difference in tumor development”. In assay [2] (normal WT mice, rIL-9 vs control group (FIG. 5C)), the LLC-1 tumor development entry is reported as “significantly suppressed”. For the same molecule, the melanoma growth entry in assay [3] (Rag1-/- C57BL/6 mice (lack T and B cells), rIL-9 vs PBS (FIG. 5D)) is recorded as “significantly slowed melanoma growth”; in assay [3] (normal WT mice, B16F10 s.c., rIL-9 i.p. vs PBS (FIG. 5B)) it was “impaired melanoma growth”. Moreover, the survival of mice result in assay [3] (melanoma bearing mice, rIL-9 (data not shown)) is “increased the survival of mice”. The “melanoma growth in vaccinated mice” value in assay [3] (mice vaccinated with 1 million irradiated melanoma cells, melanoma cells injected 7 days later, rIL-9 vs PBS) is recorded as “significantly slower melanoma growth”. Besides, in assay [4], the EL-4 tumor growth result is recorded as “neither inhibition nor acceleration”.
